Measured values taken from patent US20180318382 (published 2018).
Where no end group is shown, it is not given here.

T1: NHERF-1 PDZ1 (human, UniProt O14745)
T1 chain: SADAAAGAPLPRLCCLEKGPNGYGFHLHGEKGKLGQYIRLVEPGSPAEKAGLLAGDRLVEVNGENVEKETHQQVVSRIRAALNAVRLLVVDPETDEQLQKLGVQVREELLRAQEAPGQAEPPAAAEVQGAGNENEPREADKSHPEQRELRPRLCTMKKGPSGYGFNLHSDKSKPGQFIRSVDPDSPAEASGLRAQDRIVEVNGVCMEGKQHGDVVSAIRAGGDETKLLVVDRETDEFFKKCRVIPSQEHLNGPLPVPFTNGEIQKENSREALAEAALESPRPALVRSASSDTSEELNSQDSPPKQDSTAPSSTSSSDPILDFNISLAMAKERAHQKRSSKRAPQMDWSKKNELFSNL

T2: TIP-1 (human, UniProt O14907)
T2 chain: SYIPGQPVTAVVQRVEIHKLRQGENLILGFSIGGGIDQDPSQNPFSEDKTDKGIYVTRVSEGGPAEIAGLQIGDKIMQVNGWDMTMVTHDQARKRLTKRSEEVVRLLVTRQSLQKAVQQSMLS

T3: NHERF-1 PDZ2 (human, UniProt O14745)
T3 chain: T1 chain


target: T4, CAL PDZ (human, UniProt Q9HD26); experiment: not given

Binder | Ki [µM]
Ac-WQVTRV [kCAL01] | ~1

target: T4, CAL PDZ; experiment: FP, competition

Binder | Ki [µM]
ANSRWQVTRV [ANSRWQVTRV (second entry)] | 1.13
Ac-LPVTRV [Ac-LPVTRV] | 4.42
Ac-WPVTRV [Ac-WPVTRV] | 1.22
ANSRWQVTRV | 1.17

Target: T1, NHERF-1 PDZ1
Experiment: FP, competition

Binder | Ki [µM]
ANSRWQVTRV [ANSRWQVTRV (second entry)] | 2.8
ANSRLPTSK(Ac)I [ANSRLPTS[Ac-K]I] | > 5000
ANSRLPTSII [iCAL42 ANSRLPTSII] | > 5000
ANSRLPTSKI [ANSRLPTS[K-AEBA]I] | > 5000
ANSRWQVTRV | 2.8

Target: T2, TIP-1
Experiment: FP, competition

Binder | Ki [µM]
ANSRWQVTRV [ANSRWQVTRV (second entry)] | 0.057
Ac-LPVTRV [Ac-LPVTRV] | > 5000
Ac-WPVTRV [Ac-WPVTRV] | 0.258
ANSRLPTSK(Ac)I [ANSRLPTS[Ac-K]I] | > 5000
ANSRLPTSII [iCAL42 ANSRLPTSII] | > 5000
ANSRLPTSKI [ANSRLPTS[K-AEBA]I] | > 5000
ANSRWQVTRV | 0.057

Target: T3, NHERF-1 PDZ2
Experiment: FP, competition

Binder | Ki [µM]
ANSRLPTSK(Ac)I [ANSRLPTS[Ac-K]I] | > 5000
ANSRLPTSII [iCAL42 ANSRLPTSII] | > 5000
ANSRLPTSKI [ANSRLPTS[K-AEBA]I] | > 5000
ANSRWQVTRV | 208
